The values below are quoted from earlier work in PMC5519506 (Molecular pharmaceutics, 2016).

The subject of one data set is EGFR^high tumor. The note with it: ref [28], cited from earlier work; for tumor:muscle ratio / tumor:blood ratio: fibronectin.
For data set [1] the following is noted: fibronectin; ref [28]; cited from earlier work.

Like-named read-outs stand apart in the source and are kept apart here.

With fibronectin, the tumor accumulation is recorded as 2.4 ± 1.0 %ID/g in the data set with EGFR^high tumor (1 h, second of two values) and 3.4 ± 1.0 %ID/g in the data set with EGFR^high tumor (1 h). In addition, the “tumor:muscle ratio” value in the data set with EGFR^high tumor (1 h, PET) is reported as 8.6 ± 3.0; with EGFR^high tumor (1 h, excised tissue), 10 ± 4; in the data set with EGFR^high tumor (4 h, excised tissue) it was 4.2 ± 1.3. For the same substance, the “tumor:blood ratio” value with EGFR^high tumor (1 h) is listed as 8.9 ± 4.7; in the data set on EGFR^high tumor (4 h), 6.4 ± 4.3. Further, the clearance half-time in data set [1] is given as 2.1 ± 0.3 min.
